Data as given in patent US20180311371A1 (Hoffmann-La Roche, published 2018).

Columns and labels:
[1] = biological target: T1, rat TPBG extracellular domain, huIgG1-Fc-His6 (rat); test: ELISA; Fc-TPBG coated; mAb titrated from 1 µg/ml
T1 construct: also called Fc-TPBG (rt)

[2] = biological target: T2, human TPBG extracellular domain, huIgG1-Fc-His6 (human); test: ELISA; Fc-TPBG coated; mAb titrated from 1 µg/ml
T2 construct: also called Fc-TPBG (hu)

[3] = biological target: T3, minipig TPBG extracellular domain, huIgG1-Fc-His (minipig); test: ELISA; Fc-TPBG coated; mAb titrated from 1 µg/ml
T3 construct: also called Fc-TPBG (mp)

[4] = biological target: T4, murine TPBG extracellular domain, huIgG1-Fc-His6 (murine); test: ELISA; Fc-TPBG coated; (-) = no binding
T4 construct: also called Fc-TPBG (mo)
T4 sequence (chain, as listed by the source limits assumed): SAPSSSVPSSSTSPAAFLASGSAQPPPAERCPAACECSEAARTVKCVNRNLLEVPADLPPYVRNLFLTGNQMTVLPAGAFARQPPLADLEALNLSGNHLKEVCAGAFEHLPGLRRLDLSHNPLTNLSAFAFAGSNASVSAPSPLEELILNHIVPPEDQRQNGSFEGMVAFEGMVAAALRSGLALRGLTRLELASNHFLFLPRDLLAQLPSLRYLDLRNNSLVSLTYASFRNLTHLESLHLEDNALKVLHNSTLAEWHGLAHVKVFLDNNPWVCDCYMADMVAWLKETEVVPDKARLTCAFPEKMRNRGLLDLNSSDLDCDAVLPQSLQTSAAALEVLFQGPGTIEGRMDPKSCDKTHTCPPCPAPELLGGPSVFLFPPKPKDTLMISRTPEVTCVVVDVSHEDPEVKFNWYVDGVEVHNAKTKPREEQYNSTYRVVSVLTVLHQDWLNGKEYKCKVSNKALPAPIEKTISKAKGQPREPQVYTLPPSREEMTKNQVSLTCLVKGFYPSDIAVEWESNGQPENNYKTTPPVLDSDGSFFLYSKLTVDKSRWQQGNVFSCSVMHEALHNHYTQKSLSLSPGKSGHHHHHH

[5] = biological target: T1, rat TPBG extracellular domain, …; test: ELISA; Fc-TPBG coated; (-) = no binding
[6] = biological target: T5, cynomolgus TPBG extracellular domain, huIgG1-Fc-His6 (cynomolgus); test: ELISA; Fc-TPBG coated; (-) = no binding
T5 construct: also called Fc-TPBG (cy)
T5 sequence (chain, as listed by the source limits assumed): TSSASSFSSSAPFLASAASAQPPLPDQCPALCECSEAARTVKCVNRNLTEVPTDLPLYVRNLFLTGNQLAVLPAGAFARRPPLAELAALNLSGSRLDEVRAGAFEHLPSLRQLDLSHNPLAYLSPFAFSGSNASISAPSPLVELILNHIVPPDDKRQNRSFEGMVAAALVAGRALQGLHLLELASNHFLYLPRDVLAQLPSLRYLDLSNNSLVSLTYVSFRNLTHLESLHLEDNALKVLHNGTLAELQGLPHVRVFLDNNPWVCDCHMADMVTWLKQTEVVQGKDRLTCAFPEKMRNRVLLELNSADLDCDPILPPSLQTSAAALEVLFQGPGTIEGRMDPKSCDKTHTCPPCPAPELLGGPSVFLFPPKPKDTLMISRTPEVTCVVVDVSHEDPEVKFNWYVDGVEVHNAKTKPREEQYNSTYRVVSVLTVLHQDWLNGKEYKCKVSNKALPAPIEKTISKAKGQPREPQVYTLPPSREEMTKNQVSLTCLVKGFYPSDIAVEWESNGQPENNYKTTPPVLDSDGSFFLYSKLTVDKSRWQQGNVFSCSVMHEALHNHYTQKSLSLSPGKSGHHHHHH

T1 sequence (chain, as listed by the source limits assumed): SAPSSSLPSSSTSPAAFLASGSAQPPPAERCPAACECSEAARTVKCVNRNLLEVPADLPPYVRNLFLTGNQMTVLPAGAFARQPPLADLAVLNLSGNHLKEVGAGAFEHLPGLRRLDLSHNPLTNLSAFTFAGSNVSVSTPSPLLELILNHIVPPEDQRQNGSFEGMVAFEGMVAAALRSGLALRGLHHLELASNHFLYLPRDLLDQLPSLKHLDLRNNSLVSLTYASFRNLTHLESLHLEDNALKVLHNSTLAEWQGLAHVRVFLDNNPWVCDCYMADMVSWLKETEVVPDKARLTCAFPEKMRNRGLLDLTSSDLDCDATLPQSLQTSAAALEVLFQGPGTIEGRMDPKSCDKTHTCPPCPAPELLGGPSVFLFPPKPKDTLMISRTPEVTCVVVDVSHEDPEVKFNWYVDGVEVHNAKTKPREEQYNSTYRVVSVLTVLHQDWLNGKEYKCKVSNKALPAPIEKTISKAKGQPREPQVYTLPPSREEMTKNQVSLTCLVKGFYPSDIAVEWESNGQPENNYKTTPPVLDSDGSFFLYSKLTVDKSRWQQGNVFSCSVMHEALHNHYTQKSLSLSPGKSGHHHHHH

| Binder | binding result [1] | binding result [2] | binding result [3] | binding result [4] | binding result [5] | binding result [6] |
| --- | --- | --- | --- | --- | --- | --- |
| anti-TPBG antibody 091 (mAb) (antibody, V domains shown) VH: EVHLLESGGGLVHPGGSLRLSCAASGFTFRSDAMHWVRQAPGKGLEWVSGVSGSGGSPYYADSVKGRFTISRDDSKTTLYLQMNSLRAEDTAVYYCATGGSIAGSYYYYPMDVWGQGTTVTVSS VL: DIQMTQSPSSLSASVGDRVTITCQASQDISNYLNWYQQKPGKAPKLLIYAASTLQIGVPSRFSGSGSGTDFTFTISSLQPEDFATYYCQQANSFPLTFGGGTKVEIK | binds | binds | binds | no binding (tested: titrated from 1 µg/ml) | – | – |
| anti-TPBG antibody 097 (mAb) (antibody, V domains shown) VH: EVQLLESGGGLAQPGGSLRLSCAASGFTFNNDAMTWVRQAPGKGLEWVSAISGSGGSTYYADSVKGRFTISRDNSKNTLYLQMNSLRAEDTAVYYCAKGGSWGDWYYYFYPMDVWGQGTTVTVSS VL: not shown | – | binds | binds | no binding (tested: titrated from 1 µg/ml) | no binding (tested: titrated from 1 µg/ml) | no binding (tested: titrated from 1 µg/ml) |
